# According to patent US20230122364A1:
# Columns and labels:
# [1] = target: SRBD subdomain of SARS-CoV-2 S protein (SARS-CoV-2) (UniProt P0DTC2); experiment: ELISA on coated SRBD
# [2] = target: SARS-CoV S2Pecto antigen (SARS-CoV) (UniProt P59594); experiment: ELISA on coated SARS-CoV S2Pecto
substance,measurement,setting,value
rCR3022 (recombinant form of the cross-reactive SARS-CoV SRBD mAb CR3022) (antibody),EC50,[1],1.1 ng/mL
same,EC50,[2],5.2 ng/mL
